# Results: article doi:10.1101/2021.02.01.429088 (bioRxiv, 2021)
# Read-outs that look alike come from different tables or passages of the source.
# B1: T3D σ1 Head (293-455), wild type (domain or fragment, mammalian orthoreovirus T3D (Dearing))
# chain: GAMASPNLRYPIADVSGGIGMSPNYRFRQSMWIGIVSYSGSGLNWRVQVNSDIFIVDDYIHICLPAFDGFSIADGGDLSLNFVTGLLPPLLTGDTEPAFHNDVVTYGAQTVAIGLSSGGAPQYMSKNLWVEQWQDGVLRLRVEGGGSITHSNSKWPAMTVSYPRSFT
# B2: T3D σ1 Tail-Body (25-291) (domain or fragment, mammalian orthoreovirus T3D (Dearing))
# chain: GAMASKGLESRVSALEKTSQIHSDTILRITQGLDDANKRIIALEQSRDDLVASVSDAQLAISRLESSIGALQTVVNGLDSSVTQLGARVGQLETGLAELRVDHDNLVARVDTAERNIGSLTTELSTLTLRVTSIQADFESRISTLERTAVTSAGAPLSIRNNRMTMGLNDGLTLSGNNLAIRLPGNTGLNIQNGGLQFRFNTDQFQIVNNNLTLKTTVFDSINSRIGATEQSYVASAVTPLRLNSSTKVLDMLIDSSTLEINSSGQLTVRS
# B3: T3D σ1 Body-Head (170-455), wild type (domain or fragment, mammalian orthoreovirus T3D (Dearing))
# chain: GAMAVTSAGAPLSIRNNRMTMGLNDGLTLSGNNLAIRLPGNTGLNIQNGGLQFRFNTDQFQIVNNNLTLKTTVFDSINSRIGATEQSYVASAVTPLRLNSSTKVLDMLIDSSTLEINSSGQLTVRSTSPNLRYPIADVSGGIGMSPNYRFRQSMWIGIVSYSGSGLNWRVQVNSDIFIVDDYIHICLPAFDGFSIADGGDLSLNFVTGLLPPLLTGDTEPAFHNDVVTYGAQTVAIGLSSGGAPQYMSKNLWVEQWQDGVLRLRVEGGGSITHSNSKWPAMTVSYPRSFT
# Assays:
# SEC [1] = biological target: the molecule itself; test: SEC
# SEC [2] = biological target: the molecule itself; test: SEC; remark: listed apart in the source
Protein,stoichiometry N (SEC [1]),stoichiometry N (SEC [2])
B1,3,–
B2,3,–
B3,–,3
